Laboratory results from the nanobody polyreactivity screen of Harvey et al. (2022).

Experiment: yeast display, Sf9 membrane polyspecificity reagent, FACS + sequencing; frameworks hold sequencing errors
Method in brief: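 A nanobody's polyreactivity label depends on the gate it was sorted from. Yeast display cells were stained with 10% biotinylated, detergent-solubilized Sf9 membrane reagent for 1 hour at 4 °C, enriched on streptavidin microbeads and sorted by FACS. The low and high (top ~1%) gates were set on anti-HA fluorescence for expression and streptavidin fluorescence for reagent binding.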

Row | Sequence | polyreactivity (PSR sort gate)
1 | QVQLVESGGGLVQAGGSLRLSCAASGYNFARYAMGWDRQAPGKEREFVAAITWSGGTTYYADSVKGRFTISRDNAKNTVYLQMNRLKPEDTAVYYCAARGYYTEAASSKRGNYWGQGTQVTVSS | high polyreactivity
2 | QVQLVESGGGLVQAGGSLRLSCAASGYNFAYYAMGWYRQAPGTERELVAAISWSGSSTYYADSVKGRFTISRDNAKNTVYLQMNSLKPEDTAVYYCAKGYTSYNLGKYGYCGQGTQVTVSS | low polyreactivity
3 | QVQLVESGGGLVQAGGSLRLSCAASGYSFYYYAMVWYRQAPGKERELVAAITSGDSTYADSVKGRFTISRDNAKNTVYLQMNSLKPEDTAVYYCNRDTDYGFDYWGQGTQVTVSS | low polyreactivity
4 | QVQLVESGGGLVQAGGSLRLSCAASGYTFASYTMGWYRQAPGKERELVATISRGGGRTYYADSVKGRFTISRDNAKNTVYLQMNSLKPEDTAVYYCARPSTFYTGYRQAHFDYWGQGTQVTVSS | high polyreactivity
5 | QVQLVESGGGLVQAGGSLRLSCAASGYTFDANAMGWYRQAPGKERELVAAIRSGGGLTYYADSVKGRFTISRDNAKNTVYLQMNSLKPEDTAVYYCAAVTRRDSFEYWGQGTQVTVSS | low polyreactivity
6 | QVQLVESGGGLVQAGGSLRLSCAASGYTFDAYAMGWYRQAPGKERELVAAISGDSTNYADSVKGRFTISRDNAKNTVYLQMNSLKPEDTAVYYCAAAFWYDYWEKYDYWGQGTQVTVSS | low polyreactivity
7 | QVQLVESGGGLVQAGGSLRLSCAASGYTFDAYSMGWYRQAPGKERELVAAITTNGGSTYYADSVKGRFTISRDNAKNTVYLQMNSLKPEDTAVYYCNAEYSYEGRYPYDYWGQGTQVTVSS | low polyreactivity
8 | QVQLVESGGGLVQAGGSLRLSCAASGYTFDDYEMGWYRQAPGKERELVAAISRGGSTYYADSVKGRFTISRDNEKNTVYFQMNSLKPEDTAVYYCGAVYRVRKITYDYWGQGTQVTVSS | high polyreactivity
9 | QVQLVESGGGLVQAGGSLRLSCAASGYTFDGYAMGRYRQAPGKERELVAAINSGGGTYYADSVKGRFTISRDNAKNTVYLQMNSLKPEDTAVYYCAKYTYDYWGQGTQVTVSS | low polyreactivity
10 | QVQLVESGGGLVQAGGSLRLSCAASGYTFDWYAMGWYRQAPGKERELVAAISYSTGSTYYADSVKGRFTISRDNAKNTVYLQMHSLKPEDTAVYYCATRYWRSGYDWPYGSWGQGTQVTVSS | high polyreactivity
11 | QVQLVESGGGLVQAGGSLRLSCAASGYTFEYNAMGWYRQATGKEREFVATITASGDSTYYADSVKGRFTISRDNAKNTVYLQMNSLKPEDTAVYYCATEKRDVYFTAKYDYWGQGTQVTVSS | low polyreactivity
12 | QVQLVESGGGLVQAGGSLRLSCAASGYTFFRNTMGWYRQAPGKERELVAVITKSGGSTYYADSVKGRFTISRDNAKNTVYLQMNSLKPEDTAVYYCNAVNALRNTEYNYWGQGTQVTVSS | high polyreactivity
13 | QVQLVESGGGLVQAGGSLRLSCAASGYTFFRYAMGWYRQAPGKERELVAAISGGGGSTYYADSVKGRFTISRDYAKNTVYLQMNSLKPEDTAVYYCAAESQAYSLYWGQGTQVTVSS | high polyreactivity
14 | QVQLVESGGGLVQAGGSLRLSCAASGYTFGLYTMGWYRQAPGKEREFVATIDWSEGGTHYADSVKGRFTISRDIAKISVYLQMNSLKPEYTAVYYCNADWYAYPYGYWGQGTQVTVSS | low polyreactivity
15 | QVQLVESGGGLVQAGGSLRLSCAASGYTFGQYAMGWYRQAPGKEREMVAAISSGGGSTYYADSVKGRFTISRDNAKTTVYLQMNSLKPEDTAVYYCAAQYLYPTYRYGYWGQGTQVTVSS | high polyreactivity
16 | QVQLVESGGGLVQAGGSLRLSCAASGYTFGSNTMGWYRQAPGKERELVAVITWSGGSTYYADSVKGRFTISRDNAKNTVYLQMNSLKPEDTAVYYCAADATSPLTWFDYWGQGTQVTVSS | low polyreactivity
17 | QVQLVESGGGLVQAGGSLRLSCAASGYTFGSYAMGWYRQAPGKERELVAAISGGGSTNYADSVKGRFTISRDNAKNTVYLQMNSLKPEDTAVYYCAADIRWGQGTQVTVSS | low polyreactivity
18 | QVQLVESGGGLVQAGGSLRLSCAASGYTFGTYAMGWYRQAPGKERELVAAITTNVGSTYYADSVKGRFTISRDNAKNTVYLQMNSLKPEDTAVYYCAADVGWRFGDITYWAYDYWGQGTQVTVSS | low polyreactivity
19 | QVQLVESGGGLVQAGGSLRLSCAASGYTFGTYDMGWYRQAPGNERELGAAISLGGSTNYADSVKGPFTISRDNAKNTVYLQMYSLKPEDTAVYYCAAEVNVGTLLLSVIVEDGDYWGQGTQVTVSS | low polyreactivity
20 | QVQLVESGGGLVQAGGSLRLSCAASGYTFGYNAMGWYRQAPGKERELVAAISWNAGSTYYADSVKGRFTISRDNAKNTVYLQMNSLKPEDTAVYYCATEGTYIYNYWGQGTQVTVSS | low polyreactivity
21 | QVQLVESGGGLVQAGGSLRLSCAASGYTFGYNAMGWYRQAPGKERELVANITWRGGSTNYADSVKGRFTISRDNAKNTVYLQMNSLKPEDTAVYYCAADRPWYYGRYYYWGQGTQVTVSS | high polyreactivity
22 | QVQLVESGGGLVQAGGSLRLSCAASGYTFGYYAMGWYRQAPGKERELVAAINYSGGRTYYADSVKGRFTISRDNAKNTVYLQMNSLKPEDTAVYYCNAKYGGWSKYWFPRDMDYWGQGTQVTVSS | low polyreactivity

Row | Sequence | polyreactivity (PSR sort gate)
23 | QVQLVESGGGLVQAGGSLRLSCAASGYTFIHNAMGWYRQAPGKERELVAAINRSGGITNYADSVKGRFTISRDNAKNTVYLQMNSLKPEDTAVYYCNADVDPLPPRYLHREVLKEYNYWGQGTQVTVSS | low polyreactivity
24 | QVQLVESGGGLVQAGGSLRLSCAASGYTFKTNDMGWYRPAPGKEREFVAAISAIGGSTYYADSVKGRFTISRDNAKNTVYLQMNSLKPEDTAVYYCAKDKSPYGYATNQYRKYYYWGQGTQVTVSS | low polyreactivity
25 | QVQLVESGGGLVQAGGSLRLSCAASGYTFLGYAMGWYRQAPGKERELVAAIRRSGGRPYYADSVKGRFTISRDNAKNTVYLQINRLKPEDTAVYYCAQGYVGEYDYWGQGTQVTVTS | high polyreactivity
26 | QVQLVESGGGLVQAGGSLRLSCAASGYTFLYYAMGWYRQAPGKEREFVAAISRSGGSTYYADSVKGRFTISRDNAKNTVYLQMISLKPEDTAVYYCAARFRYQHQRGDYWGQGTQVTVSS | high polyreactivity
27 | QVQLVESGGGLVQAGGSLRLSCAASGYTFLYYAMGWYRQAPGKEREFVAAISRSGGSTYYADSVKGRFTISRDNAKNTVYLQMNSLKPEDTAVYYCAKDHPSGRQYDYWGQGTQVTVSS | high polyreactivity
28 | QVQLVESGGGLVQAGGSLRLSCAASGYTFPDYAMGWYRQATGKERELVAAIRSGGGTNYADSVKGRFTISRDNAKNTVYLQMNSLKPEDTAVYYCAKEWAGGLYDYWGQGTQVTVSS | low polyreactivity
29 | QVQLVESGGGLVQAGGSLRLSCAASGYTFPFYTMGWYRQAPGKERELVAAINSGGSTYYADSVKGRFTISRDNAKNTVYLQMNSLKPEDNAVYYCAVEGGFRVRYQAQYRYYYCGQGTQVTVSS | high polyreactivity
30 | QVQLVESGGGLVQAGGSLRLSCAASGYTFPRYAMGWYRQAPGKERELVAAITWSGGSTYYADSVKGRFTISRDNAKNTVYLQMNSLKPEDTAVYYCNTDRYHRVDFDYWGQGTQVTVSS | high polyreactivity
31 | QVQLVESGGGLVQAGGSLRLSCAASGYTFPSNAMGWYRQAPGKERELVAAISSGGRTNYADSVKGRFTISRDNAKNTVYLQMNSLTPEDTAVYYCNADGGPGYPRAYDYWGQGTQVTGSS | low polyreactivity
32 | QVQLVESGGGLVQAGGSLRLSCAASGYTFQTNTMGWYRQAPGKERELVAAITDGDSTNYADSVKGRFTISRDNAKNTVYLQMNSLKPEDTAVYYCAAQYYYSEAGMDYWGQGTQVTVSS | low polyreactivity
33 | QVQLVESGGGLVQAGGSLRLSCAASGYTFRIYAMGWYRLAPGKERELVAGISSRGTSTYYADSVKGRFTISRDNAKNTVYLQMNSLKPEDTAVYYCAAGRYGRLYGYWGQGTQVTVSS | high polyreactivity
34 | QVQLVESGGGLVQAGGSLRLSCAASGYTFRYYAMGWYRQAPGKERELVAAITGSGGSTYYADSVKGRFTISRDNAKNTVYLQMNSLKPEDTAVYYCNTVTTSYKRSGKFDYWGQGTQVTVSS | high polyreactivity
35 | QVQLVESGGGLVQAGGSLRLSCAASGYTFRYYAMGWYRQAPGKERELVARITGRAGSTYYADSVKGRFTISRDNAKNTVYLQMNSLKPEDTAVYYCAAQPAHPRRYDYWGQGTQVTVSS | high polyreactivity
36 | QVQLVESGGGLVQAGGSLRLSCAASGYTFSDNAMGWYRQAPGKERELVAAITSGVSTYYADSVKGRFTISRDNAKNTVYLQMNSQKPEDTAVYYCAKEVAVFADLYQGAPYGYWGQGTQVTVSS | low polyreactivity
37 | QVQLVESGGGLVQAGGSLRLSCAASGYTFSDYAMGWYRQAPGKERELVAAISWSGGSTYYADSVKGRFTISRDNAKNTVYLQMNSLKPEDTAVYYCAAKWYAPDLLYYYWGQGTQVTVSS | low polyreactivity
38 | QVQLVESGGGLVQAGGSLRLSCAASGYTFSHYAMGWYRQAPGTERELVAGITWSGGSTYYADSVKGRFTISRDNAKNTVYLQMNSLKPEDTSVYYCAAKYYWYYSYSGIPLFDYWGQGTQVTVSS | low polyreactivity
39 | QVQLVESGGGLVQAGGSLRLSCAASGYTFSHYPMGWYRQAPGKERELVAGITWSGGSTYYADSVKGRFTISRDNAKNTVYLQMNSLKPEDTSVYYCAGKYYWYYSYSGIPLFDYWGQGTQVTVSS | low polyreactivity
40 | QVQLVESGGGLVQAGGSLRLSCAASGYTFSLNAMGWYRQAPGKERELVAAISGRTGRTYYADSVKGRFTISRDNAKNTVYLQMNSLKPEDTAVYYGNKVYPYQRRTRFDYWGQGTQVTVSS | high polyreactivity
41 | QVQLVESGGGLVQAGGSLRLSCAASGYTFSPNDMGWYRQAPGKERELVAAITSSVGSTYYADSVKGRFTISRDNAKNTVYLQLNSLKPEDTAVYYCNKQDSSYYISGGGDYDYWGQGTQVTVSS | low polyreactivity
42 | QVQLVESGGGLVQAGGSLRLSCAASGYTFTGYALGWYRQAPGKERELVAAITSIGGSTYYADSVKGRFTISRDNAKNTVYLQMNSLKPEDTAVYYCAAEGDYVYDMDYWGQGTQVTVSS | low polyreactivity
43 | QVQLVESGGGLVQAGGSLRLSCAASGYTFTHYAMGWYRQAPGKERELVAGITWSGGSTYYADSVKGRLTISRDNAKNTVYLQMNSLKPEDTSVYYCAAKYYWYYSYSGIPLFDYWGQGTQVTVSS | low polyreactivity
